Ends that are not written are not given here.
Assays:
[1] = molecular target: ICAM-1 on HeLa cells (human) (UniProt P05362); assay: cell-based or functional assay
[2] = molecular target: the molecule itself; assay: self-association of the chimeric protein; size exclusion HPLC
Procedure: By correlation with sedimentation velocity data, the multimerization state of additional ATFα-based domains was determined by size exclusion HPLC. HPLC size exclusion chromatography was performed on a column selected to resolve species of chimeric multimers ranging from dimers through pentamers. The selected column also resolved species including the Fab moiety of the chimera: Tetramers (6.5S by ultracentrifugation) consistently eluted from the column at 13.7±0.1 min.; trimers (5.5S) eluted at 14.0±0.1; and dimers (4.5S) eluted at 15.0±0.1 min. Data on additional domains is listed in Table 7 along with those determined by sedimentation.

Chain of ICAM-1 on HeLa cells (human) (P05362 28-532): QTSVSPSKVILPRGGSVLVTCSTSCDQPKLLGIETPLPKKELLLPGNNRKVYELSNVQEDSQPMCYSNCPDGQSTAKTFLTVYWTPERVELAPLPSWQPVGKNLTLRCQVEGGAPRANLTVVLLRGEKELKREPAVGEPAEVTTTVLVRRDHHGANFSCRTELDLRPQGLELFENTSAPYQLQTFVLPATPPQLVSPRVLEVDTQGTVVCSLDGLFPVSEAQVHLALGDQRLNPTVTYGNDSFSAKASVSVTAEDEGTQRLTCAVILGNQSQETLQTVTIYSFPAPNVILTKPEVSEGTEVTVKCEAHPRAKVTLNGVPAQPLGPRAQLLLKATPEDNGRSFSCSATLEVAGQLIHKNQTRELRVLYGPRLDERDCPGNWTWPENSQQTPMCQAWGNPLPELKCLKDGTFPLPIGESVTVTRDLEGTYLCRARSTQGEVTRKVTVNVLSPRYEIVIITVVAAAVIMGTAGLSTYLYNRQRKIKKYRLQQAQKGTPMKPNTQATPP

Molecule: anti-ICAM-1 monoclonal antibody RR/1 (Chemicon)
- EC50, protection of HeLa cells from HRV15 infection [1]: > 10 nM

Molecule: LMSIEKKLEEITQTLMQIQNELSMIKNELAQ (other, not shown: large carriers, also: chimeric fusion protein, fusion partner and linker not given here, also called CREB-LI) [chimeric fusion protein with the CREB-Pa-LI domain]
- binding result [2]: binds

B1: chimeric fusion protein with the CREB-Pa-LL domain (other, not shown: large carriers)
chain: LMSLEKKLEELTQTLMQLQNELSMLKNELAQ
modifications: also: domain of chimeric fusion protein, fusion partner and linker not given here
notes: also called CREB-LL
- binding result [2]: binds

B2: chimeric fusion protein with the CREB-Pa-IL domain (other, not shown: large carriers)
chain: IMSLEKKIEELTQTIMQLQNEISMLKNEIAQ
modifications: also: domain of chimeric fusion protein, fusion partner and linker not given here
notes: also called CREB-IL
- binding result [2]: binds

B3: chimeric fusion protein with the JUN-D-LI domain (other, not shown: large carriers)
chain: LSRIEEKLKTIKSQLTEIASTLSLIREQLAQ
modifications: also: domain of chimeric fusion protein, fusion partner and linker not given here
- binding result [2]: binds

B4: chimeric fusion protein with the JUN-D-LL domain (other, not shown: large carriers)
chain: LSRLEEKLKTLKSQLTELASTLSLLREQLAQ
modifications: also: domain of chimeric fusion protein, fusion partner and linker not given here
- binding result [2]: binds

B5: chimeric fusion protein with the CJUN-LI domain (other, not shown: large carriers)
chain: LARIEEKLKTIKAQLSEIASTLNMIREQLAQ
modifications: also: domain of chimeric fusion protein, fusion partner and linker not given here
- binding result [2]: binds

B6: chimeric fusion protein with the CJUN-LL domain (other, not shown: large carriers)
chain: LARLEEKLKTLKAQLSELASTLNMLREQLAQ
modifications: also: domain of chimeric fusion protein, fusion partner and linker not given here
- binding result [2]: binds

B7: chimeric fusion protein with the CJUN-IL domain (other, not shown: large carriers)
chain: IARLEEKIKTLKAQISELASTINMLREQIAQ
modifications: also: domain of chimeric fusion protein, fusion partner and linker not given here
- binding result [2]: binds

Molecule: LKSIENRLAVIENQLKTIIEELKTIKDLLSN (other, not shown: large carriers, also: chimeric fusion protein, fusion partner and linker not given here, copies left open) [chimeric fusion protein with the ATF-1-LI domain]
- binding result [2]: binds

B8: chimeric fusion protein with the ATF-1-LL domain (other, not shown: large carriers)
chain: LKSLENRLAVLENQLKTLIEELKTLKDLLSN
modifications: also: domain of chimeric fusion protein, fusion partner and linker not given here
- binding result [2]: binds

B9: chimeric fusion protein with the ATF-1-IL domain (other, not shown: large carriers)
chain: IKSLENRIAVLENQIKTLIEEIKTLKDLISN
modifications: also: domain of chimeric fusion protein, fusion partner and linker not given here
- binding result [2]: binds

B10: chimeric fusion protein with the ATF-1-II domain (other, not shown: large carriers)
chain: IKSIENRIAVIENQIKTIIEEIKTIKDLISN
modifications: also: domain of chimeric fusion protein, fusion partner and linker not given here
- binding result [2]: binds

B11: chimeric fusion protein with the ATF2-LI domain (other, not shown: large carriers)
chain: LQSIEKKLEDISSLLGQIQSELTLIRNELAQ
modifications: also: domain of chimeric fusion protein, fusion partner and linker not given here
- binding result [2]: binds

B12: chimeric fusion protein with the ATF2-LL domain (other, not shown: large carriers)
chain: LQSLEKKLEDLSSLLGQLQSELTLLRNELAQ
modifications: also: domain of chimeric fusion protein, fusion partner and linker not given here
- binding result [2]: binds

B13: chimeric fusion protein with the ATF2-IL domain (other, not shown: large carriers)
chain: IQSLEKKIEDLSSLIGQLQSEITLLRNEIAQ
modifications: also: domain of chimeric fusion protein, fusion partner and linker not given here
- binding result [2]: binds

From patent US20030138440A1 (published 2003)
